Data on one molecule can be found in US20220340673A1 (HARBOUR BIOMED SUZHOU, published 2022).

Test [1] deals with T1, human CD3e/g ECD-hFc recombinant protein (human, UniProt P07766 23-126; P09693 23-116).
T1 construct: extracellular domain; Bought from ChemPartner; not shown: human Fc
As to the kind of experiment: SPR (Biacore T200), antigen amine-coupled on CM5, antibody as analyte, 1:1 fit. How it is done: (§1) The flow rate was set as 10 μl/min and four antigens were coupled on four channels on two CMS: 1) the injection time was set as 300 s, and 50 mM of NHS and 200 mM of EDC were freshly mixed at 1:1 volume ratio and injected into four channels; 2) human BCMA-Fc, Avitag recombinant protein, cynomolgus monkey BCMA-FC, Avitag, human CD3e/g ECD-hFc recombinant protein and cynomolgus CD3e/g ECD-hFc recombinant protein were all diluted to 1 μg/ml with sodium acetate (Cat# BR-1003-50) (pH 4.5), and injected into channel 2, 3 and 4 of chip 1 and channel 2 of chip 2, respectively; 3) 1 M of ethanolamine (pH8.5) was injected for 300 s to block the remaining active carboxyl groups on the chips surface. After blockage, the instrument was continued to be equilibrated with 1 ×HBS- EP+buffer for two hours. The final coupling amounts of human BCMA-Fc, Avitag recombinant protein, cynomolgus monkey BCMA-Fc, Avitag, human CD3e/g ECD-hFc recombinant protein and cynomolgus monkey CD3e/g ECD-hFc recombinant protein were 120 RU, 70 RU, 200 RU and 290 RU, respectively.
(§2) A multi-cycle kinetic mode was set, and each cycle included the binding of PRO03178 as well as the regeneration of the chip. […]
(§3) The experimental results were analyzed by using Biacore T200 analysis software, and channel 1 was deducted as reference channel, and a 1:1 kinetic fit model was selected as the analysis model.
(In SPR one partner is held on a chip, and binding of the other changes the refractive index at the surface.)

Test [2] deals with T2, human BCMA-Fc, Avitag recombinant protein (ACRO, Cat. BC7-H82F0) (human, UniProt Q02223 1-54).
T2 construct: extracellular domain; Bought reagent; amine-coupled to the CM5 chip in the Biacore assay; also called recombinant human BCMA-ECD-Fc; human BCMA recombinant protein; not shown: Fc and Avitag of the bought protein
T2 sequence (looked up): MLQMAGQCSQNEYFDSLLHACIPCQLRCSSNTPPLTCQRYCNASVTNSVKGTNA
The test is described as above. How it is done: as §1, §2, §3

Test [3] concerns the target T3, human BCMA on cells (HEK293T/huBCMA; NCI-H929) (human, UniProt Q02223 1-184).
T3 sequence (looked up): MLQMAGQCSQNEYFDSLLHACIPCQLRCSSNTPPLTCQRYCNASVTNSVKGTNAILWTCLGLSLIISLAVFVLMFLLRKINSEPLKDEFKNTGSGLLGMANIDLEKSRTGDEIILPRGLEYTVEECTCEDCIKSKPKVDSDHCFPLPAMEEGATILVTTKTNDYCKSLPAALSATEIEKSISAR
As to the kind of experiment: cell-based or functional assay.

Test [4] has as its target T4, cynomolgus monkey BCMA on cells (HEK293T/cynoBCMA) (cynomolgus monkey, UniProt A0A2K5UD97 1-183).
T4 construct: whole, on cells
As to the kind of experiment: FACS on HEK293T cell strain overexpressing cynomolgus monkey BCMA [C]. The text has this:
To study the in vitro binding activity of the BCMA arm of the BCMA×CD3 bispecific antibody, HEK293T cell strain overexpressing human BCMA (HEK293T/huBCMA) and HEK293T cell strain overexpressing cynomolgus monkey BCMA (HEK293T/cynoBCMA) were used for antibody binding experiments at cellular level. Briefly, HEK293T/huBCMA cells and HEK293T/cynoBCMA cells were digested and resuspended with DMEM complete medium. The cell density of the two was adjusted to 1×10⁶ cells/mL, respectively. Cells were inoculated at 100 μL cells/well in a 96 well V-bottom plate (Corning, Cat#: 3894), followed by the addition of test antibodies at 100 μL/well, which is gradient diluted at 3 folds of the concentration with 2 folds of the final concentration. Cells were incubated at 4° C. for 1 hour in the dark. Afterwards, the cells were washed twice with 100 μL/well of pre-cooled PBS, centrifuged at 500 g for 5 min at 4° C., and followed by discarding the supernatant. 100 μL/well of fluorescent secondary antibody (Alexa Fluor 488-conjugated AffiniPure Goat Anti-Human IgG, Fcγ Fragment Specific, Jackson, Cat#: 109-545-06, 1:500 dilution) was added and incubated for 30 min at 4° C. in the dark. […] Finally, the cells were resuspended with 200 μL/well of pre-cooled PBS, and the fluorescence luminescence signal values were read by BD FACS CANTOII. […]

T4 sequence (A0A2K5UD97 entry or part of it): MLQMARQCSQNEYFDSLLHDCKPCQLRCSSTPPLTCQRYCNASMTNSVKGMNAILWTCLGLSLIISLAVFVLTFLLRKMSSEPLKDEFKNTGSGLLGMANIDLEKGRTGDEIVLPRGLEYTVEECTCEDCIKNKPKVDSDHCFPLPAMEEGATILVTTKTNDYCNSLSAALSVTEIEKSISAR
T1 sequence (P07766 23-126, chain 1 of 2): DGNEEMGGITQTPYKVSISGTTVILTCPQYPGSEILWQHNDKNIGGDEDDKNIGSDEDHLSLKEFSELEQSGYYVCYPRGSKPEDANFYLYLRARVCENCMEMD
T1 sequence (P09693 23-116, chain 2 of 2): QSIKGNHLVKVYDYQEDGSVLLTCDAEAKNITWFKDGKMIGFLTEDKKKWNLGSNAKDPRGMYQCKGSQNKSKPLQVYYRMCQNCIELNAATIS

B1: BCMA x CD3 bispecific antibody PR003178 (bispecific antibody, human IgG1, lambda, L234A L235A)
heavy 1: not shown
light: QAVVTQEPSLTVSPGGTVTLTCRSSTGAVTTSNYANWVQQKPGQAPRGLIGGTNKRAPWTPARFSGSLLGDKAALTLLGAQPEDEAEYFCALWYSNLWVFGGGTKLTVLGQPKAAPSVTLFPPSSEELQANKATLVCLISDFYPGAVTVAWKADSSPVKAGVETTTPSKQSNNKYAASSYLSLTPEQWKSHRSYSCQVTHEGSTVEKTVAPTECS
heavy 2: EVQLVETGGGLIQPGGSLRLSCAASGFTVSDNYMTWVRQAPGKGLEWVSVIFSGGNTYYADSVKGRFTISRDNAKNTLYLQMNSLRAEDTALYYCARRNYDDTRGTDVFDIWGQGTMVTVSSGGGGSGGGGSGGGGSEVQLVETGGGLIQPGGSLRLSCAASGFTVSDNYMTWVRQAPGKGLEWVSVIFSGGNTYYADSVKGRFTISRDNAKNTLYLQMNSLRAEDTALYYCARRNYDDTRGTDVFDIWGQGTMVTVSSASEPKSSDKTHTCPPCPAPEAAGGPSVFLFPPKPKDTLMISRTPEVTCVVVDVSHEDPEVKFNWYVDGVEVHNAKTKPREEQYNSTYRVVSVLTVLHQDWLNGKEYKCKVSNKALPAPIEKTISKAKGQPREPQVCTLPPSREEMTKNQVSLSCAVKGFYPSDIAVEWESNGQPENNYKTTPPVLDSDGSFFLVSKLTVDKSRWQQGNVFSCSVMHEALHNHYTQKSLSLSPGK
notes: Three chains: HC1 (anti-CD3 heavy, knob, LALA), LC (anti-CD3 lambda light), HC2 (two tandem anti-BCMA VH of PR001046 joined by (G4S)3, then Fc hole, LALA); also called PRO03178
One may read the Kd as the concentration at which binding is half-saturated. In general, EC50 refers to the concentration at which the effect is half-maximal. Take B1: the Kd in test [1] was approximately 25.4 nM; in test [2], approximately 0.0949 nM. The “EC50 of the killing curve (LDH release, human PBMC effector cells, NCI-H929 target cells), fold against positive control 2” value in test [3] was determined as 10 fold. For the same molecule, the EC50 in test [4] was determined as 0.921 nM.
